Key:
[1] = target: phosphorylated SARS-CoV-2 N construct pN.1-211 (SARS-CoV-2) (UniProt P0DTC9); assay: SEC; observed qualitatively; Figure 6(C) and data not shown
[2] = target: phosphorylated SARS-CoV-2 N construct pN.1-238 (SARS-CoV-2) (UniProt P0DTC9); assay: SEC-MALS

**Q.** With “untagged full-length human 14-3-3γ (from UniProt P61981 1-247) (natural protein)” as the substance, how does the stoichiometry N (14-3-3γ chains per pN.1-211 chain (2:1)) [1] read?
**A.** The stoichiometry N (14-3-3γ chains per pN.1-211 chain (2:1)) was 2.

**Q.** And the stoichiometry N (14-3-3γ chains per pN.1-238 chain (2:1)) [2]?
**A.** The stoichiometry N (14-3-3γ chains per pN.1-238 chain (2:1)) was 2.

Reference: paper PMC7863765
